Assay results as given in patent US20030186281A1, “Modified tetracycline repressor protein compositions and methods of use” (priority 2001, published 2003).

B1: Clone 4b (protein)
chain: MSRLDKSKVINSALELLNEVGIEGLTTRKLAQKLGVEQPTLYWHVKNKRALLDALAVEILARHHDYSLPAAGESWQSFLRNNAMSFRRALLRYRDRAKVHLGTRPDEKQYDTVETQLRFMTENGFSLRDGLYAISAVSHFTLGAVLEQQEHTAALTDRPAAPDENLPPLLREALQIMDSDDGEQAFLHGLESLIRGFEVQLTALLQIV
modifications: revTetR4b
B2: TetRrevAD1/2: revTetR(BD) N18Y L52L D53Y A54A I59T (protein)
chain: MSRLDKSKVINSALELLYEVGIEGLTTRKLAQKLGVEQPTLYWHVKNKRALLYALAVETLARHHDYSLPAAGESWQSFLRNNAMSFRRALLRYRDGAKVHLGTRPDEKQYDTVETQLRFMTENGFSLRDGLYAISAVSHFTLGAVLEQQEHTAALTDRPAAPDENLPPLLREALQIMDSDDGEQAFLHGLESLIRGFEVQLTALLQIV
modifications: Modified tetracycline repressor
notes: revTetR(BD) N18Y L52L D53Y A54A I59T
B3: Clone 11 (protein)
chain: MSRLDKSKVINSALELLNEVGIEGLTTRKLAQKLGVEQPTLYWHVKNKRALLDALAVEILARHHDYSLPAAGESWQSFLRNNAMSFRRALLRYRDGAKEHLGTRPDEKQYDTVETQLRFMTENGFSLRDGLYAISAVSHFTLGAVLEQQEHTAALTDRPAAPDENLPPLLREALQIMDSDDGEQAFLHGLESLIRGFEVQLTALLQIV
modifications: revTetR11
B4: TetRrevAD2/4: revTetR(BD) L17F N18R D53N I59M A61T (protein)
chain: MSRLDKSKVINSALELFREVGIEGLTTRKLAQKLGVEQPTLYWHVKNKRALLNALAVEMLTRHHDYSLPAAGESWQSFLRNNAMSFRRALLRYRDGAKVHLGTRPDEKQYDTVETQLRFMTENGFSLRDGLYAISAVSHFTLGAVLEQQEHTAALTDRPAAPDENLPPLLREALQIMDSDDGEQAFLHGLESLIRGFEVQLTALLQIV
modifications: Modified tetracycline repressor
notes: revTetR(BD) L17F N18R D53N I59M A61T
B5: TetRrevAD2/12: revTetR(BD) E23H D53Y A56A E58Q I59T (protein)
chain: MSRLDKSKVINSALELLNEVGIHGLTTRKLAQKLGVEQPTLYWHVKNKRALLYALAVQTLARHHDYSLPAAGESWQSFLRNNAMSFRRALLRYRDGAKVHLGTRPDEKQYDTVETQLRFMTENGFSLRDGLYAISAVSHFTLGAVLEQQEHTAALTDRPAAPDENLPPLLREALQIMDSDDGEQAFLHGLESLIRGFEVQLTALLQIV
modifications: Modified tetracycline repressor
notes: revTetR(BD) E23H D53Y A56A E58Q I59T
B6: TetRrevAF1/8: revTetR(BD) G24G Y93N L101F G102D (protein)
chain: MSRLDKSKVINSALELLNEVGIEGLTTRKLAQKLGVEQPTLYWHVKNKRALLDALAVEILARHHDYSLPAAGESWQSFLRNNAMSFRRALLRNRDGAKVHFDTRPDEKQYDTVETQLRFMTENGFSLRDGLYAISAVSHFTLGAVLEQQEHTAALTDRPAAPDENLPPLLREALQIMDSDDGEQAFLHGLESLIRGFEVQLTALLQIV
modifications: Modified tetracycline repressor
notes: revTetR(BD) G24G Y93N L101F G102D
B7: TetRrevAD1/6: revTetR(BD) N18Y E23V D53A A54S L55L A56S A61T H63Y (protein)
chain: MSRLDKSKVINSALELLYEVGIVGLTTRKLAQKLGVEQPTLYWHVKNKRALLASLSVEILTRYHDYSLPAAGESWQSFLRNNAMSFRRALLRYRDGAKVHLGTRPDEKQYDTVETQLRFMTENGFSLRDGLYAISAVSHFTLGAVLEQQEHTAALTDRPAAPDENLPPLLREALQIMDSDDGEQAFLHGLESLIRGFEVQLTALLQIV
modifications: Modified tetracycline repressor
notes: revTetR(BD) N18Y E23V D53A A54S L55L A56S A61T H63Y
B8: TetRrevAD2/13: revTetR(BD) E19D V20E E23K V57L I59N L60F A61A (protein)
chain: MSRLDKSKVINSALELLNDEGIKGLTTRKLAQKLGVEQPTLYWHVKNKRALLDALALENFARHHDYSLPAAGESWQSFLRNNAMSFRRALLRYRDGAKVHLGTRPDEKQYDTVETQLRFMTENGFSLRDGLYAISAVSHFTLGAVLEQQEHTAALTDRPAAPDENLPPLLREALQIMDSDDGEQAFLHGLESLIRGFEVQLTALLQIV
modifications: Modified tetracycline repressor
notes: revTetR(BD) E19D V20E E23K V57L I59N L60F A61A
B9: TetRrevAD2/6: revTetR(BD) N18Y G21E E23K (protein)
chain: MSRLDKSKVINSALELLYEVEIKGLTTRKLAQKLGVEQPTLYWHVKNKRALLDALAVEILARHHDYSLPAAGESWQSFLRNNAMSFRRALLRYRDGAKVHLGTRPDEKQYDTVETQLRFMTENGFSLRDGLYAISAVSHFTLGAVLEQQEHTAALTDRPAAPDENLPPLLREALQIMDSDDGEQAFLHGLESLIRGFEVQLTALLQIV
modifications: Modified tetracycline repressor
notes: revTetR(BD) N18Y G21E E23K
B10: TetRrevAF1/11: revTetR(BD) L14I V20V I22L R94H A97A V99E (protein)
chain: MSRLDKSKVINSAIELLNEVGLEGLTTRKLAQKLGVEQPTLYWHVKNKRALLDALAVEILARHHDYSLPAAGESWQSFLRNNAMSFRRALLRYHDGAKEHLGTRPDEKQYDTVETQLRFMTENGFSLRDGLYAISAVSHFTLGAVLEQQEHTAALTDRPAAPDENLPPLLREALQIMDSDDGEQAFLHGLESLIRGFEVQLTALLQIV
modifications: Modified tetracycline repressor
notes: revTetR(BD) L14I V20V I22L R94H A97A V99E
B11: TetRrevAF2/5: revTetR(BD) L14R E!9E D95H L101P (protein)
chain: MSRLDKSKVINSARELLNEVGIEGLTTRKLAQKLGVEQPTLYWHVKNKRALLDALAVEILARHHDYSLPAAGESWQSFLRNNAMSFRRALLRYRHGAKVHPGTRPDEKQYDTVETQLRFMTENGFSLRDGLYAISAVSHFTLGAVLEQQEHTAALTDRPAAPDENLPPLLREALQIMDSDDGEQAFLHGLESLIRGFEVQLTALLQIV
modifications: Modified tetracycline repressor
notes: revTetR(BD) L14R E!9E D95H L101P
B12: TetRrevAF1/7: revTetR(BD) G96R L101I (protein)
chain: MSRLDKSKVINSALELLNEVGIEGLTTRKLAQKLGVEQPTLYWHVKNKRALLDALAVEILARHHDYSLPAAGESWQSFLRNNAMSFRRALLRYRDRAKVHIGTRPDEKQYDTVETQLRFMTENGFSLRDGLYAISAVSHFTLGAVLEQQEHTAALTDRPAAPDENLPPLLREALQIMDSDDGEQAFLHGLESLIRGFEVQLTALLQIV
modifications: Modified tetracycline repressor
notes: revTetR(BD) G96R L101I

System: tet operator sequence
Assay: β-galactosidase activity of a tetracycline-regulated promoter in transformed E. coli with revTetR, in the presence and absence of anhydrotetracycline (atc)
Format: cell-based, Escherichia coli
Conditions: for Relative Activity of revTetR repressors, 28° C. ratio (non-repressed to repressed levels of transcription) / Relative Activity of revTetR repressors, 37° C. ratio (non-repressed to repressed levels of transcription): E. coli, absence vs presence of anhydrotetracycline; for β-Galactosidase Activity, Cultured Without ATC: RevTetR isolate cultured in the absence of anhydrotetracycline (ATC); for β-Galactosidase Activity, Cultured With ATC: RevTetR isolate cultured in the presence of anhydrotetracycline (ATC)
Description: The relative activity of revTetR repressors was determined at 28° C. and 37° C. for each clone by measuring β-galactosidase activity of a tetracycline-regulated promoter in transformed Escherichia coli in the presence and absence of the tetracycline analog, anhydrotetracycline (atc). The relative β-galactosidase activity was measured in standard Miller units and is presented as the percent of maximal expression as measured in the absence of Tet repressor. […] With respect to each mutant, as well as the wild-type controls, FIG. 2 provides two horizontal bars; the upper horizontal bar represents the level of β-galactosidase activity in the absence of anhydrotetracycline (−atc) while the lower horizontal bar represents the level of β-galactosidase activity in the presence of anhydrotetracycline (+atc).
The pool of mutated Tet repressors was cloned into plasmid pWH1411 (Baumeister et al., 1992, Proteins: Struct. Funct. Genet. 14: 168-77), which carries a TetR(B) gene, to provide a TetR(BD) chimera that included, as the amino-terminal portion, amino acid residues 1 to 50 of the TetR(B) gene and, as the carboxyl-terminal portion, amino acid residues 51 to 208 of the TetR(D) gene. The resulting plasmid pool was screened in a genetic assay which positively selects for a functional interaction between a Tet repressor and its cognate operator using E. coli strain WH207(λWH25) (the construction of this strain is described in detail in Wissmann et al., (1991) Genetics 128: 225-32). In this E. coli strain, tet operators direct the expression of divergently arranged β-galactosidase (lacZ) and Lac repressor (lacI) genes and the lac regulatory region directs the expression of a galactokinase (galK) gene on plasmid pWH414. Binding of Tet repressors to tet operators turns off transcription of the lacI and lacZ genes. The absence of Lac repressor allows for expression of the galK gene, which enables the E. coli strain to use galactose as a sole carbon source, which serves as one marker. The lacZ^− phenotype serves as a second marker. Thus, bacteria containing Tet repressors which bind to tet operators, have a Gal^+, lacZ^− phenotype. Bacteria containing wild-type Tet repressors have a Gal^+, lacZ^− phenotype in the absence of tetracycline. Modified “reverse” Tet repressors (revTetR) were selected based upon a Gal^+, lacZ^− phenotype in the presence of tetracycline.
The ability of each revTetR clone to bind to its cognate tet operator sequence and regulate transcription in a prokaryotic organism, Escherichia coli, in the presence and absence of a tetracycline analog (anhydrotetracycline, atc) was determined (Table 3, FIG. 2). The relative ratios of non-repressed to repressed levels of transcription for the 15 clones range from about 1.4-fold to about 50-fold at 28° C. and from about 1.3-fold to 40-fold at 37° C. For example, clone 4b comprising an amino acid substitution of glutamic acid for glycine at position 96 (e.g., SEQ ID NO. 24) repressed transcription 19-fold at 37° C. but to a less extent at 28° C. (5.7-fold, Table 3). Furthermore, clones 14, 5a and 7 comprising the arginine for glycine substitution at position 96 and further comprising a substitution or substitutions of serine for threonine at position 103 and valine for glutamic acid at position 114; leucine for proline at position 159; or glutamine to histidine at position 188, respectively, have pronouncedly different activities.
wherein each underlined base was present in approximately 85% of the oligonucleotides, while the remaining approximately 15% of the oligonucleotides contained one of the other three, non-wild type bases at that position. Similar mutagenic, partially randomized oligonucleotides were prepared for mutagenesis of the coding regions for amino acids 14-25 and 93-102. It was predicted that, according to a binomial distribution, each oligonucleotide would contain three to four mutations. […]

| Molecule | repression of transcription (ratio of non-repressed to repressed levels of transcription) (28° C.) [fold] | Relative Activity of revTetR repressors, 28° C. ratio (non-repressed to repressed levels of transcription) (28° C.) | repression of transcription (ratio of non-repressed to repressed levels of transcription) (37° C.) [fold] | Relative Activity of revTetR repressors, 37° C. ratio (non-repressed to repressed levels of transcription) (37° C.) | β-Galactosidase Activity, Cultured Without ATC | β-Galactosidase Activity, Cultured With ATC |
| --- | --- | --- | --- | --- | --- | --- |
| B1 | 5.7 | 5.7 | 19 | 19.0 | – | – |
| B2 | – | – | – | – | 84.85 | 1.6137 |
| B3 | 18 | 18.1 | 41 | 41.1 | – | – |
| B4 | – | – | – | – | 32.2603 | 1.0068 |
| B5 | – | – | – | – | 73.5981 | 1.2806 |
| B6 | – | – | – | – | 42.088 | 1.1643 |
| B7 | – | – | – | – | 85.6043 | 2.5079 |
| B8 | – | – | – | – | 71.1255 | 1.3355 |
| B9 | – | – | – | – | 89.5374 | 3.8811 |
| B10 | – | – | – | – | 96.2362 | 1.1578 |
| B11 | – | – | – | – | 97.8373 | 2.4067 |
| B12 | – | – | – | – | 72.199 | 2.2753 |
